Reference: patent US20050265970A1

Target: GST-MKK7 (GST-JNKK2; human JNKK2 in pGEX-2T) (human) (UniProt O14733)
Assay: in vitro pull-down with purified GST-MKK7 and increasing His6/T7-tagged protein, anti-T7 Western blot; JIP1 under non-saturating conditions

GST-MKK7 (GST-JNKK2; human JNKK2 in pGEX-2T) (human), sequence (O14733 1-401 Q94H/Q133P): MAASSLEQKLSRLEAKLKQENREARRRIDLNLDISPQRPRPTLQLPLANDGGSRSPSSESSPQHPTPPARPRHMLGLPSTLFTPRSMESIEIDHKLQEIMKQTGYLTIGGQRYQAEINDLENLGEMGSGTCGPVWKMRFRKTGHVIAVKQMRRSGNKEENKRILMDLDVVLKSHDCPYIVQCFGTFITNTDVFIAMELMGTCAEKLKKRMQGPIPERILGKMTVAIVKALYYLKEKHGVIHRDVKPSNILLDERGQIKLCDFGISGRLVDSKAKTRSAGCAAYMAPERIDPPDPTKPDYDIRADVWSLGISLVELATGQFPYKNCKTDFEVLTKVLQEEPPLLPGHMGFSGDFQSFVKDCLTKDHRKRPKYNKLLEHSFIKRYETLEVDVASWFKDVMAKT

With “His6/T7-JIP1 (MKK7-binding domain of JIP1b, pET28)” the half maximum binding (HMB) was greater than 650 nM.
